In patent US20240366776A1 (Hoffmann-La Roche, published 2024):

T1: biotinylated IL-2 receptor beta gamma heterodimer Fc (IL-2RBG; Acro ILG-H5254) (UniProt P14784 27-239; P31785 23-262, biotinylated)
T1 construct: bought heterodimer
T1 sequence (looked up) 1: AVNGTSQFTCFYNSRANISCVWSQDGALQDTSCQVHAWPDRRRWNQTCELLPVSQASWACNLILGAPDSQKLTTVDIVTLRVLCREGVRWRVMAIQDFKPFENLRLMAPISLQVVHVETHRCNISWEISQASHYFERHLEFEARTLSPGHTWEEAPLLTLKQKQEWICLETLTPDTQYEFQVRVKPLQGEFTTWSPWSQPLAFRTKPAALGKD
T1 sequence (looked up) 2: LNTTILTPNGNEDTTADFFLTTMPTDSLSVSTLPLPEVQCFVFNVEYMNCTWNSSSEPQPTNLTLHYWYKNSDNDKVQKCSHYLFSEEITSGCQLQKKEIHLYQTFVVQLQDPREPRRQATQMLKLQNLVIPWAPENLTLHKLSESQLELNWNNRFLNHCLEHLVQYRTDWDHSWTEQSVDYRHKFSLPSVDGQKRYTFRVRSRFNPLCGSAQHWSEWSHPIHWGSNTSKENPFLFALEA


Molecular target: T1, biotinylated IL-2 receptor beta gamma …
Assay: ELISA, captured complex, biotin-IL-2RBG 10 nM, PD-1 Fc titrated
Experimental: The DBA-cytokine complexes and control antibody-cytokine complexes were produced in two formats: (1) “Symmetric” immunocytokine (shown in FIG. 2E); or (2) “Asymmetric” immunocytokine (shown in FIG. 2B) by expression in mammalian cells and purified using standard protocols. […] To perform the assay, 384-well ELISA plates were coated with anti-Fc antibody at 1 micrograms/ml in 100 mM bicarbonate solution pH 9.0 overnight at 4° C. and washed twice with SUPERBLOCK™. Antibody-cytokine complexes were then added to each well at a constant concentration of 6 nM and allowed to incubate for 1 hour and washed three times in PBS plus 0.05% TWEEN® 20 (PBST). Titrated concentrations of PD-1 Fc or an IgG1 control Fc were added and allowed to incubate for 15 minutes before the addition of a constant amount of biotinylated IL-2RBG at 10 nM. The plates were incubated for an additional 30 minutes, washed and biotinylated IL-2RBG detection was performed using streptavidin-HRP and standard ELISA protocols.

Row | binding result | Binder
1 | binds | AF003657 (other, also called AF3657) heavy: APASSSTKKTQLQLEHLLLDLQMILNGINNYKNPKLTRMLTAKFAMPKKATELKHLQCLEEELKPLEEVLNGAQSKNFHLRPRDLISNINVIVLELKGSETTFMCEYADETATIVEFLNRWITFAQSIISTLTGGGGSGGGGSGGGGSGGGGSQVQLVQSGAEVKKPGASVKVSCKASGDTFTRYYVHWVRQAPGQGLEWMGIINPSGGYASYAQKFQGRVTMTRDTSTSTVYMELSSLRSEDTAVYYCAAGLFIWGQGTLVTVSSAKTTAPSVYPLAPVCGDTTGSSVTLGCLVKGYFPEPVTLTWNSGSLSSGVHTFPAVLQSDLYTLSSSVTVTSSTWPSQSITCNVAHPASSTKVDKKIEPRGPTIKPCPPCKCPAPNAAGGPSVFIFPPKIKDVLMISLSPIVTCVVVDVSEDDPDVQISWFVNNVEVHTAQTQTHREDYNSTLRVVSALPIQHQDWMSGKEFKCKVNNKDLGAPIERTISKPKGSVRAPQVYVLPPPEEEMTKKQVTLTCMVTDFMPEDIYVEWTNNGKTELNYKNTEPVLDSDGSYFMYSKLRVEKKNWVERNSYSCSVVHEGLHNHHTTKSFSRTPGK light: DIQMTQSPSSLSASVGDRVTITCRASQSIGRWLAWYQQKPGKAPKLLIYSASNLETGVPSRFSGSGSGTDFTLTISSLQPEDFATYYCQQYESFPVTFGPGTKVDIKRADAAPTVSIFPPSSEQLTSGGASVVCFLNNFYPKDINVKWKIDGSERQNGVLNSWTDQDSKDSTYSMSSTLTLTKDEYERHNSYTCEATHKTSTSPIVKSFNRNEC
2 | binds | AF003934 (other, also called AF3934) heavy: APASSSTKKTQLQLEHLLLDLQMILNGINNYKNPKLTRMLTAKFAMPKKATELKHLQCLEEELKPLEEVLNGAQSKNFHLRPRDLISNINVIVLELKGSETTFMCEYADETATIVEFLNRWITFAQSIISTLTGGGGSGGGGSGGGGSGGGGSQVQLVQSGAEVKKPGASVKVSCKASGYTFTRYYMHWVRQAPGQGLEWMGIINPRAGYTSYALKFQGRVTMTRDTSTSTVYMELSSLRSEDTAVYYCTSGWDVWGQGTLVTVSSAKTTAPSVYPLAPVCGDTTGSSVTLGCLVKGYFPEPVTLTWNSGSLSSGVHTFPAVLQSDLYTLSSSVTVTSSTWPSQSITCNVAHPASSTKVDKKIEPRGPTIKPCPPCKCPAPNAAGGPSVFIFPPKIKDVLMISLSPIVTCVVVDVSEDDPDVQISWFVNNVEVHTAQTQTHREDYNSTLRVVSALPIQHQDWMSGKEFKCKVNNKDLGAPIERTISKPKGSVRAPQVYVLPPPEEEMTKKQVTLTCMVTDFMPEDIYVEWTNNGKTELNYKNTEPVLDSDGSYFMYSKLRVEKKNWVERNSYSCSVVHEGLHNHHTTKSFSRTPGK light: DIQMTQSPSSLSASVGDRVTITCRASQSISTWLAWYQQKPGKAPKLLIYAASSLDSGVPSRFSGSGSGTDFTLTISSLQPEDFATYYCQQSYSFPVTFGQGTKVEIKRADAAPTVSIFPPSSEQLTSGGASVVCFLNNFYPKDINVKWKIDGSERQNGVLNSWTDQDSKDSTYSMSSTLTLTKDEYERHNSYTCEATHKTSTSPIVKSFNRNEC
3 | binds | AF003947 (other, also called AF3947) heavy 1: APASSSTKKTQLQLEHLLLDLQMILNGINNYKNPKLTRMLTAKFAMPKKATELKHLQCLEEELKPLEEVLNGAQSKNFHLRPRDLISNINVIVLELKGSETTFMCEYADETATIVEFLNRWITFAQSIISTLTGGGGSGGGGSGGGGSGGGGSQVQLVQSGAEVKKPGASVKVSCKASGDTFTRYYVHWVRQAPGQGLEWMGIINPSGGYASYAQKFQGRVTMTRDTSTSTVYMELSSLRSEDTAVYYCAAGLFIWGQGTLVTVSSAKTTAPSVYPLAPVCGDTTGSSVTLGCLVKGYFPEPVTLTWNSGSLSSGVHTFPAVLQSDLYTLSSSVTVTSSTWPSQSITCNVAHPASSTKVDKKIEPRGPTIKPCPPCKCPAPNAAGGPSVFIFPPKIKDVLMISLSPIVTCVVVDVSEDDPDVQISWFVNNVEVHTAQTQTHREDYNSTLRVVSALPIQHQDWMSGKEFKCKVNNKDLGAPIERTISKPKGSVRAPQVYVLPPPEEEMTKKQVTLTCMVTDFMPEDIYVEWTNNGKTELNYKNTEPVLDSDGSYFMYSDLRVEKKNWVERNSYSCSVVHEGLHNHHTTESFSRTPGK heavy 2: QVQLVQSGAEVKKPGASVKVSCKASGDTFTRYYVHWVRQAPGQGLEWMGIINPSGGYASYAQKFQGRVTMTRDTSTSTVYMELSSLRSEDTAVYYCAAGLFIWGQGTLVTVSSAKTTAPSVYPLAPVCGDTTGSSVTLGCLVKGYFPEPVTLTWNSGSLSSGVHTFPAVLQSDLYTLSSSVTVTSSTWPSQSITCNVAHPASSTKVDKKIEPRGPTIKPCPPCKCPAPNAAGGPSVFIFPPKIKDVLMISLSPIVTCVVVDVSEDDPDVQISWFVNNVEVHTAQTQTHREDYNSTLRVVSALPIQHQDWMSGKEFKCKVNNKDLGAPIERTISKPKGSVRAPQVYVLPPPEKEMTKKQVSLTCLVKDFMPEDIYVEWTNNGKTELNYKNTEPVLKSDGSYFMYSKLTVEKKNWVERNSYSCSVVHEGLHNHHTTKSFSRTPGGGGSGGGSHHHHHH light: DIQMTQSPSSLSASVGDRVTITCRASQSIGRWLAWYQQKPGKAPKLLIYSASNLETGVPSRFSGSGSGTDFTLTISSLQPEDFATYYCQQYERFPVTFGPGTKVDIKRADAAPTVSIFPPSSEQLTSGGASVVCFLNNFYPKDINVKWKIDGSERQNGVLNSWTDQDSKDSTYSMSSTLTLTKDEYERHNSYTCEATHKTSTSPIVKSFNRNEC
4 | binds | AF003247 (other, also called AF3247) heavy: APASSSTKKTQLQLEHLLLDLQMILNGINNYKNPKLTRMLTAKFAMPKKATELKHLQCLEEELKPLEEVLNGAQSKNFHLRPRDLISNINVIVLELKGSETTFMCEYADETATIVEFLNRWITFAQSIISTLTGGGGSGGGGSGGGGSGGGGSQVQLVQSGAEVKKPGASVKVSCKASGDTFTRHYVHWVRQAPGQGLEWMGIINPSGGYASYAQKFQGRVTMTRDTSTSTVYMELSSLRSEDTAVYYCAAGLFIWGQGTLVTVSSAKTTAPSVYPLAPVCGDTTGSSVTLGCLVKGYFPEPVTLTWNSGSLSSGVHTFPAVLQSDLYTLSSSVTVTSSTWPSQSITCNVAHPASSTKVDKKIEPRGPTIKPCPPCKCPAPNAAGGPSVFIFPPKIKDVLMISLSPIVTCVVVDVSEDDPDVQISWFVNNVEVHTAQTQTHREDYNSTLRVVSALPIQHQDWMSGKEFKCKVNNKDLGAPIERTISKPKGSVRAPQVYVLPPPEEEMTKKQVTLTCMVTDFMPEDIYVEWTNNGKTELNYKNTEPVLDSDGSYFMYSKLRVEKKNWVERNSYSCSVVHEGLHNHHTTKSFSRTPGK light: DIQMTQSPSSLSASVGDRVTITCRASQSIGRWLAWYQQKPGKAPKLLIYSASNLETGVPSRFSGSGSGTDFTLTISSLQPEDFATYYCQQYESFPVTFGPGTKVDIKRADAAPTVSIFPPSSEQLTSGGASVVCFLNNFYPKDINVKWKIDGSERQNGVLNSWTDQDSKDSTYSMSSTLTLTKDEYERHNSYTCEATHKTSTSPIVKSFNRNEC
5 | binds | AF003644 (other, also called AF3644) heavy: APASSSTKKTQLQLEHLLLDLQMILNGINNYKNPKLTRMLTAKFAMPKKATELKHLQCLEEELKPLEEVLNGAQSKNFHLRPRDLISNINVIVLELKGSETTFMCEYADETATIVEFLNRWITFAQSIISTLTGGGGSGGGGSGGGGSGGGGSQVQLVQSGAEVKKPGASVKVSCKASGDTFTRYYVHWVRQAPGQGLEWMGIINPSGGYASYAQKFQGRVTMTRDTSTSTVYMELSSLRSEDTAVYYCAAGLFIWGQGTLVTVSSAKTTAPSVYPLAPVCGDTTGSSVTLGCLVKGYFPEPVTLTWNSGSLSSGVHTFPAVLQSDLYTLSSSVTVTSSTWPSQSITCNVAHPASSTKVDKKIEPRGPTIKPCPPCKCPAPNAAGGPSVFIFPPKIKDVLMISLSPIVTCVVVDVSEDDPDVQISWFVNNVEVHTAQTQTHREDYNSTLRVVSALPIQHQDWMSGKEFKCKVNNKDLGAPIERTISKPKGSVRAPQVYVLPPPEEEMTKKQVTLTCMVTDFMPEDIYVEWTNNGKTELNYKNTEPVLDSDGSYFMYSKLRVEKKNWVERNSYSCSVVHEGLHNHHTTKSFSRTPGK light: DIQMTQSPSSLSASVGDRVTITCRASQSIGRWLAWYQQKPGKAPKLLIYSASNLETGVPSRFSGSGSGTDFTLTISSLQPEDFATYYCQQYNSFPVTFGPGTKVDIKRADAAPTVSIFPPSSEQLTSGGASVVCFLNNFYPKDINVKWKIDGSERQNGVLNSWTDQDSKDSTYSMSSTLTLTKDEYERHNSYTCEATHKTSTSPIVKSFNRNEC
6 | binds | AF003651 (other, also called AF3651) heavy: APASSSTKKTQLQLEHLLLDLQMILNGINNYKNPKLTRMLTAKFAMPKKATELKHLQCLEEELKPLEEVLNGAQSKNFHLRPRDLISNINVIVLELKGSETTFMCEYADETATIVEFLNRWITFAQSIISTLTGGGGSGGGGSGGGGSGGGGSQVQLVQSGAEVKKPGASVKVSCKASGDTFTRYYVHWVRQAPGQGLEWMGIINPSGGYASYAQKFQGRVTMTRDTSTSTVYMELSSLRSEDTAVYYCAAGLFIWGQGTLVTVSSAKTTAPSVYPLAPVCGDTTGSSVTLGCLVKGYFPEPVTLTWNSGSLSSGVHTFPAVLQSDLYTLSSSVTVTSSTWPSQSITCNVAHPASSTKVDKKIEPRGPTIKPCPPCKCPAPNAAGGPSVFIFPPKIKDVLMISLSPIVTCVVVDVSEDDPDVQISWFVNNVEVHTAQTQTHREDYNSTLRVVSALPIQHQDWMSGKEFKCKVNNKDLGAPIERTISKPKGSVRAPQVYVLPPPEEEMTKKQVTLTCMVTDFMPEDIYVEWTNNGKTELNYKNTEPVLDSDGSYFMYSKLRVEKKNWVERNSYSCSVVHEGLHNHHTTKSFSRTPGK light: DIQMTQSPSSLSASVGDRVTITCRASQSIGRYLAWYQQKPGKAPKLLIYSASNLETGVPSRFSGSGSGTDFTLTISSLQPEDFATYYCQQYNSFPVTFGPGTKVDIKRADAAPTVSIFPPSSEQLTSGGASVVCFLNNFYPKDINVKWKIDGSERQNGVLNSWTDQDSKDSTYSMSSTLTLTKDEYERHNSYTCEATHKTSTSPIVKSFNRNEC
